Assay results as given in patent publication US20250026827A1 (Alector, published 2025).

T1: mouse SIRPα D1-Fc (mouse, UniProt P97797 32-150, limits assumed)
T1 construct: domain: D1
T1 sequence (looked up): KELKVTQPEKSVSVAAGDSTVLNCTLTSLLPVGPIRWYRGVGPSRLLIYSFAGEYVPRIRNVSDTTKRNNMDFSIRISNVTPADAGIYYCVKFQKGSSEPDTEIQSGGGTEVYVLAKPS

T2: mouse SIRPβ1 on CHO cells (mouse)
T2 construct: Whole entry
T2 chain: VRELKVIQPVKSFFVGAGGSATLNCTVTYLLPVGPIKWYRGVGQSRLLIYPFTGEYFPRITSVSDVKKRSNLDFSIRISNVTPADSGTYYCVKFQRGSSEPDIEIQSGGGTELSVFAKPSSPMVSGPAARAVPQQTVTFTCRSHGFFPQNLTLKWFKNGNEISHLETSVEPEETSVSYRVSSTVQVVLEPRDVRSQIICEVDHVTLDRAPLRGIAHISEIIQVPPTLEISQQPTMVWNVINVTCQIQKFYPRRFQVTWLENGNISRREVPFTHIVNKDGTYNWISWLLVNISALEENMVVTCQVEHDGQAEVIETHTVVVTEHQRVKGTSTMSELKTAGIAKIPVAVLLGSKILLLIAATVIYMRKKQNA

T3: mouse SIRPα on cells (mouse, UniProt P97797 32-513)
T3 construct: whole, on cells
T3 sequence (looked up): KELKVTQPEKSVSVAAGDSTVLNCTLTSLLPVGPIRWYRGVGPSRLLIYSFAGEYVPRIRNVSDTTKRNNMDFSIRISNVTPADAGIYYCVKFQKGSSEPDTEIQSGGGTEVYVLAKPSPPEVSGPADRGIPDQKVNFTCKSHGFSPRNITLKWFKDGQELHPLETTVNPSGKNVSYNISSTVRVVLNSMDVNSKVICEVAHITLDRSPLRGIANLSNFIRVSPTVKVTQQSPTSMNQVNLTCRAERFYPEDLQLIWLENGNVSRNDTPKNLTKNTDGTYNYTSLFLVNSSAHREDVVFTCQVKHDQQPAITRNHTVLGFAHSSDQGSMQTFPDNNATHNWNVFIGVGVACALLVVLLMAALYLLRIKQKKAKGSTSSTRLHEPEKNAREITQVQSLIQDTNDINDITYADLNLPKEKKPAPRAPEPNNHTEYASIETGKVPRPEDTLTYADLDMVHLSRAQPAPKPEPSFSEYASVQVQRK


Tests used:
[1] = molecular target: T4, human SIRPα domain 1 (D1) Fc fusion (human, UniProt P78324 32-149); test: Octet
T4 construct: also called human SIRPα D1-Fc; Human SIRPα Fc; not shown: C-terminal human IgG1 Fc

mouse SIRPα D1-Fc = molecular target: T1, mouse SIRPα D1-Fc; test: Octet
Method: Briefly, Octet affinity measurements were performed by loading IgGs on-line onto AHQ sensors. Sensors were equilibrated off-line in assay buffer for 30 min and then monitored on-line for 60 seconds for baseline establishment. For avid binding measurement, sensors with loaded IgGs were exposed to 100 nM antigen (human SIRPα domain 1 (D1) Fc fusion or SIRPβ1 domain 1 (D1) Fc fusion) for 3 min, and then transferred to assay buffer for 3 min for off-rate measurement. Additional avid binding was determined by loading biotinylated SIRPβ1 monomer on SA sensors and exposing to 100 nM IgG in solution. Monovalent binding measurements were obtained by loading human SIRPα- or SIRPβ1-Fc fusion antigens onto AHQ sensor, followed by exposure to 100 nM anti-SIRPβ1 antibody Fab. Additional monovalent measurements were made by loading biotinylated human SIRPα or SIRPβ1 monomer to SA sensor followed by exposure to 100 nM Fab in solution. Kinetics data were fit using a 1:1 binding model in the data analysis software provided by ForteBio (ForteBio Data Analysis Software 7.0).

human SIRPα on cells [2] = molecular target: T5, human SIRPα on cells (human, UniProt P78324 31-504); test: flow cytometry;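 for FOB: antibodies tested at 1 µg/ml for 30 min on ice against receptor-expressing cells, detected with a PE-labelled secondary antibody, read as mean fluorescence intensity relative to background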
T5 construct: Whole entry

[3] = molecular target: T2, mouse SIRPβ1 on CHO cells; test: flow cytometry;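 for FOB: antibodies tested at 1 µg/ml for 30 min on ice against receptor-expressing cells, detected with a PE-labelled secondary antibody, read as mean fluorescence intensity relative to background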
mouse SIRPα on cells [4] = molecular target: T3, mouse SIRPα on cells; test: flow cytometry;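 for FOB: antibodies tested at 1 µg/ml for 30 min on ice against receptor-expressing cells, detected with a PE-labelled secondary antibody, read as mean fluorescence intensity relative to background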
[5] = molecular target: T6, human SIRPβ1 isoform 1 on cells (human, UniProt O00241 30-398); test: flow cytometry;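 note: antibodies tested at 1 µg/ml for 30 min on ice against receptor-expressing cells, detected with a PE-labelled secondary antibody, read as mean fluorescence intensity relative to background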
T6 construct: On CHO cells (low level), on BWZ/BW5147.G.1.4 cells (reporter cells co-express human DAP12) or on primary human myeloid cells; also called huSIRPβ1; BWZ-huSIRPβ1
T6 sequence (O00241 30-398): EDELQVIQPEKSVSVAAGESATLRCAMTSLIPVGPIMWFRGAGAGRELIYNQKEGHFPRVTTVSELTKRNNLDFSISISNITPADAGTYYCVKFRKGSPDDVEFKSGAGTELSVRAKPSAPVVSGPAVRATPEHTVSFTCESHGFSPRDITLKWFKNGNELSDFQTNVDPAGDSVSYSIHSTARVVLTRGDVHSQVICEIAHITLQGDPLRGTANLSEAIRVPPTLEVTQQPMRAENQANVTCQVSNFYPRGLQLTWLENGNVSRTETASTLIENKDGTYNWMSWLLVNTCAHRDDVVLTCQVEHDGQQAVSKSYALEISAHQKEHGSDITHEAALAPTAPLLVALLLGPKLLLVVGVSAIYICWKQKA
Method: (§1) Initial characterization of anti-SIRPβ1 antibodies involved determining their ability to bind cell lines expressing human or mouse SIRPβ1. Cells were harvested, plated at 10⁶/ml in a 96-well plate, washed, and incubated in 100 μl FACS buffer containing 1 μg/ml anti-SIRPβ1 antibody for 0.5 hour on ice. Cells were then washed twice and incubated in 100 μl FACS buffer containing 0.5 μg/ml PE-conjugated secondary antibody for 30 minutes on ice. Cells were washed twice in cold FACS buffer and acquired on a BD FACS Canto. Data analysis and calculation of mean fluorescence intensity (MFI) values or 00 positive cells was performed with FlowJo (TreeStar) software version 10.0.7.
(§2) As a negative control, the anti-SIRPβ1 antibodies were also screened for surface binding to CHO cells overexpressing recombinant mouse SIRPβ31. […] Given the high sequence similarity between receptors of the SIRPβ family, anti-SIRPβ1 antibodies were also screened for cross-reactivity to human and mouse SIRPα.

human SIRPα on cells [6] = molecular target: T5, human SIRPα on cells; test: flow cytometry; remark: listed apart in the source
Method: as §1, §2

[7] = molecular target: T2, mouse SIRPβ1 on CHO cells; test: flow cytometry
Method: as §1, §2

mouse SIRPα on cells [8] = molecular target: T3, mouse SIRPα on cells; test: flow cytometry; remark: listed apart in the source
Method: as §1, §2

[9] = molecular target: T7, human SIRPβ1 domain 1 (D1) Fc fusion (human, UniProt O00241 30-148); test: Octet, IgG avid
T7 construct: Made in HEK293/T cells with a heterologous signal peptide; also called Human SIRPβ1 D1-Fc; Human SIRPβ1-Fc; not shown: C-terminal human IgG1 Fc
T7 sequence (O00241 30-148 limits assumed): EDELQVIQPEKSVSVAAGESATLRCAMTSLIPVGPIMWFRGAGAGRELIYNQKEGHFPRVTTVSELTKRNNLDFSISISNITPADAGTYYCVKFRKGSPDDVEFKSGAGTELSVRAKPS

Binder | binding result [1] | binding result (mouse SIRPα D1-Fc) | binding result (human SIRPα on cells [2]) | binding result [3] | binding result (mouse SIRPα on cells [4]) | FOB [5] | FOB (human SIRPα on cells [6]) | FOB [7] | FOB (mouse SIRPα on cells [8]) | Kd [9]
SB-33 (antibody, V domains shown, IgG) VH: EVQLVESGGGLVQPGGSLRLSCAASGFTVSSNYMSWVRQAPGKGLEWVSVIYSGGSTYYADSVKGRFTISRDNSKNTLYLQMNSLRAEDTAVYYCARGQYTGSLDVWGQGTMVTVSS VL: not shown | no binding (tested: 100 nM) | no binding (tested: 100 nM) | no binding (tested: 1 ug/ml) | no binding (tested: 1 ug/ml) | no binding (tested: 1 ug/ml) | 1.4 fold over background | 2.2 fold over background | 1.3 fold over background | 1.4 fold over background | 9.23 nM
SB-35 (antibody, V domains shown, IgG) VH: QVQLVQSGAEVKKPGSSVKVSCKASGGTFSSYAISWVRQAPGQGLEWMGGIIPIFGTANYAQKFQGRVTITADESTSTAYMELSSLRSEDTAVYYCARGRPQSESYLLDYWGQGTLVTVSS VL: not shown | no binding (tested: 100 nM) | no binding (tested: 100 nM) | no binding (tested: 1 ug/ml) | no binding (tested: 1 ug/ml) | no binding (tested: 1 ug/ml) | 2.1 fold over background | 2.6 fold over background | 1.1 fold over background | 1 fold over background | 7.47 nM
SB-37 (antibody, V domains shown, IgG) VH: QVQLVQSGAEVKKPGSSVKVSCKASGGTFSNYAISWVRQAPGQGLEWMGGIIPIFGTANYAQKFQGRVTITADESTSTAYMELSSLRSEDTAVYYCARSRWGASGYYYYMDVWGQGTMVTVSS VL: EIVLTQSPATLSLSPGERATLSCRASQSVSSYLAWYQQKPGQAPRLLIYDASNRATGIPARFSGSGSGTDFTLTISSLEPEDFAVYYCQQRHTYPLTFGGGTKVEIK | no binding (tested: 100 nM) | no binding (tested: 100 nM) | no binding (tested: 1 ug/ml) | no binding (tested: 1 ug/ml) | no binding (tested: 1 ug/ml) | 3.8 fold over background | 2.2 fold over background | 1.2 fold over background | 1 fold over background | 7.5 nM
SB-29 (antibody, V domains shown, IgG) VH: QVQLVQSGAEVKKPGSSVKVSCKASGGTFSSYAISWVRQAPGQGLEWMGSIIPIFGTANYAQKFQGRVTITADESTSTAYMELSSLRSEDTAVYYCARAPYGSSSGYGYFDLWGRGTLVTVSS VL: not shown | no binding (tested: 100 nM) | no binding (tested: 100 nM) | no binding (tested: 1 ug/ml) | no binding (tested: 1 ug/ml) | no binding (tested: 1 ug/ml) | 1.8 fold over background | 1.9 fold over background | 1.2 fold over background | 0.9 fold over background | 10.7 nM
SB-38 (antibody, V domains shown, IgG) VH: QVQLVQSGAEVKKPGASVKVSCKASGYTFTSYYMHWVRQAPGQGLEWMGIINPSGGSTSYAQKFQGRVTMTRDTSTSTVYMELSSLRSEDTAVYYCARESGTDFGTISYWGQGTLVTVSS VL: DIQMTQSPSSVSASVGDRVTITCRASQGISSWLAWYQQKPGKAPKLLIYAASSLQSGVPSRFSGSGSGTDFTLTISSLQPEDFATYYCQQAVSYPITFGGGTKVEIK | no binding (tested: 100 nM) | no binding (tested: 100 nM) | no binding (tested: 1 ug/ml) | no binding (tested: 1 ug/ml) | no binding (tested: 1 ug/ml) | 1.5 fold over background | 2.1 fold over background | 1.3 fold over background | 1.1 fold over background | 7.33 nM

Stronger by Kd [9], values ahead:

binding result [1] | binding result (mouse SIRPα D1-Fc) | binding result (human SIRPα on cells [2]) | binding result [3] | binding result (mouse SIRPα on cells [4]) | FOB [5] | FOB (human SIRPα on cells [6]) | FOB [7] | FOB (mouse SIRPα on cells [8]) | Kd [9] | Binder
no binding (tested: 100 nM) | no binding (tested: 100 nM) | no binding (tested: 1 ug/ml) | no binding (tested: 1 ug/ml) | no binding (tested: 1 ug/ml) | 1.6 fold over background | 2 fold over background | 1.3 fold over background | 1.2 fold over background | 4.94 nM | SB-12 (antibody, V domains shown, IgG) VH: not shown VL: EIVMTQSPATLSVSPGERATLSCRASQSVSSNLAWYQQKPGQAPRLLIYSASTRATGIPARFSGSGSGTEFTLTISSLQSEDFAVYYCQQLDNLPYTFGGGTKVEIK
no binding (tested: 100 nM) | no binding (tested: 100 nM) | no binding (tested: 1 ug/ml) | no binding (tested: 1 ug/ml) | no binding (tested: 1 ug/ml) | 1.8 fold over background | 2.1 fold over background | 1 fold over background | 0.8 fold over background | 3.66 nM | SB-9 (antibody, V domains shown, IgG) VH: QVQLVQSGAEVKKPGASVKVSCKASGYTFTSYGIHWVRQAPGQGLEWMGWISAYNGNTNYAQKLQGRVTMTTDTSTSTAYMELRSLRSDDTAVYYCARDGLHYGDYIVYYGMDVWGQGTTVTVSS VL: not shown
no binding (tested: 100 nM) | no binding (tested: 100 nM) | no binding (tested: 1 ug/ml) | no binding (tested: 1 ug/ml) | no binding (tested: 1 ug/ml) | 4.1 fold over background | 2.1 fold over background | 1.2 fold over background | 1 fold over background | 5.59 nM | SB-28 (antibody, V domains shown, IgG) VH: QLQLQESGPGLVKPSETLSLTCTVSGGSISSSSYYWGWIRQPPGKGLEWIGSISYSGSTYYNPSLKSRVTISVDTSKNQFSLKLSSVTAADTAVYYCARDPRDYSSGSSGGGWGYFDLWGRGTLVTVSS VL: EIVLTQSPGTLSLSPGERATLSCRASQSVSSSYLAWYQQKPGQAPRLLIYGASSRATGIPDRFSGSGSGTDFTLTISRLEPEDFAVYYCQQDGNFPLTFGGGTKVEIK
no binding (tested: 100 nM) | no binding (tested: 100 nM) | no binding (tested: 1 ug/ml) | no binding (tested: 1 ug/ml) | no binding (tested: 1 ug/ml) | 6.3 fold over background | 2.3 fold over background | 1.2 fold over background | 0.9 fold over background | 3.69 nM | SB-11 (antibody, V domains shown, IgG) VH: QVQLVQSGAEVKKPGSSVKVSCKASGGTFSNYAISWVRQAPGQGLEWMGGIIPIFGTANYAQKFQGRVTITADESTSTAYMELSSLRSEDTAVYYCARPVDSSSYSLGYYYGMDVWGKGTTVTVSS VL: not shown
no binding (tested: 100 nM) | no binding (tested: 100 nM) | no binding (tested: 1 ug/ml) | no binding (tested: 1 ug/ml) | no binding (tested: 1 ug/ml) | 3.1 fold over background | 1.8 fold over background | 1.4 fold over background | 1 fold over background | 3.75 nM | SB-31 (antibody, V domains shown, IgG) VH: QVQLVQSGAEVKKPGASVKVSCKASGYTFTSYYMHWVRQAPGQGLEWMGIINPGGGSTSYAQKFQGRVTMTRDTSTSTVYMELSSLRSEDTAVYYCAREGLYSSGWYIDVWGQGTLVTVSS VL: DIQMTQSPSSVSASVGDRVTITCRASQGISSWLAWYQQKPGKAPKLLIYAASSLQSGVPSRFSGSGSGTDFTLTISSLQPEDFATYYCQQAVSHPFTFGGGTKVEIK
